# ± gives the standard deviation.
# Assay: protein stability index of a GFP-peptide fusion (GPS, HEK-293T) (PSI 1-6); higher = more stable
# [1] = treatment: DMSO, c terminus: a fixed tail appended
# [2] = treatment: MLN4924 1 uM, 8 h, c terminus: a fixed tail appended
# 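Note: 24-mer peptide tiles fused after GFP, lentivirally expressed, FACS-sorted into six equal bins by GFP/DsRed ratio, decoded by Illumina sequencing, PSI is the read-weighted mean bin number.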
Sequence,protein stability index [1],protein stability index [2],"protein stability index (treatment: DMSO, c terminus: native)","protein stability index (treatment: MLN4924 1 uM, 8 h, c terminus: native)"
AVHSGTPVTNNLLEKCKTLVSQSN [SPACA9],3.76 ± 0.42,3.78 ± 0.39,–,–
MTVGILSNSLAIAILMKAYQRFRQ [PTGFR],2.17 ± 0.28,2.2 ± 0.31,–,–
IEGLKEELAYLRKNHEEEMLALRG [KRT16],3.79 ± 0.35,3.77 ± 0.32,–,–
ARFQDKQYSSHHTAEKRKRLGELF [CHGB],3.58 ± 0.44,3.56 ± 0.11,–,–
ARTFGNEARFIRRSCTPNAEVRHE [KMT2E],3.2 ± 0.51,3.22 ± 0.26,–,–
YSDGADDTFAAYTREQLYQAIFHA [MCOLN1],2.54 ± 0.23,2.52 ± 0.37,–,–
HRLGSPYGHCTAGGEGVEVELLHN [SCNN1D],3.9 ± 0.34,3.82 ± 0.37,–,–
SWNVAVKFLMARKFDVLRAIELFH [PTPN9],2.18 ± 0.25,2.31 ± 0.6,–,–
SQIQYMNTVVSTYVTTNVSLIPPR [TMEM106C],2.12 ± 0.22,2.07 ± 0.12,–,–
VRGPLQDSSWYEPSAELVQTRMAV [ZNF232],2.96 ± 0.17,3.09 ± 0.24,–,–
FCDMDKSLLCLLCSNSQEHGAHKH [TRIM43],2.49 ± 0.37,3 ± 0.67,–,–
QDMSQVSGKESPPVSDTPDEGDEP [IKZF1],5.38 ± 0.41,5.62 ± 0.32,–,–
VSYQLADGGEPQSVQVDGQARTQK [TNXB],5.184 ± 0.024,5.21 ± 0.1,–,–
QLWGQKKKNSNMTYEKLSRAMRYY [ELF3],2.29 ± 0.042,2.32 ± 0.25,–,–
RDGEPEPMQKLQDLVNRTPWKKCC [RBBP5],4 ± 0.21,4.04 ± 0.21,–,–
SSISSTSNEQLKVTQEPRAKKGRR [ZMYND11],5.24 ± 0.48,5.45 ± 0.077,–,–
TEGVTQLKLTVVEDVTVGRRQAVA [ZFYVE21],4.07 ± 0.18,4.12 ± 0.19,–,–
KDEDLDLFPASPTREAHRESSVPV [FBF1],5.11 ± 0.33,5.02 ± 0.35,–,–
FMECLVDARMLDHLTKKDLRVHLK [PPFIA4],2.4 ± 0.32,2.67 ± 0.24,–,–
LGETPENSNLEEPLNPKPHKKKSP [ZNF449],5.41 ± 0.38,5.47 ± 0.12,–,–
MHPINVRRDPSIPIYGLRQSILLN [C22orf31],2.33 ± 0.22,2.63 ± 0.51,–,–
NLQSLKFQGGHGPAATLLRRSKT [RIPK4],–,–,3.18 ± 0.21,3.27 ± 0.14
QEARERWNFDFVTETPLEGDFAWE [CDKN1A],4.39 ± 0.29,4.29 ± 0.24,–,–

Sequence,protein stability index [1],protein stability index [2],"protein stability index (treatment: DMSO, c terminus: native)","protein stability index (treatment: MLN4924 1 uM, 8 h, c terminus: native)"
DPVRQCAECALVSLKEAEFYDKQL [ZFYVE21],3.62 ± 0.046,3.67 ± 0.32,–,–
VLLTQIESKKHQVETAFERLQQEL [TRIM15],2.73 ± 0.27,2.77 ± 0.38,–,–
GGKIIMPPSALDQLSRLNITYPML [UFD1],2.16 ± 0.089,2.28 ± 0.2,–,–
PNGKHSTNFVSRYDPRFNSWIQLP [KLHL14],2.32 ± 0.097,2.58 ± 0.24,–,–
INSGYETRRKKGKKDKDISKEKDT [KMT2E],4.59 ± 0.13,4.78 ± 0.16,–,–
SKYENYFSASERLSLKRELSWYRG [HESX1],2.44 ± 0.26,2.31 ± 0.33,–,–
TLHNLSHHREGLLAIFKSGGIPAL [CTNNB1],2.4 ± 0.11,2.38 ± 0.24,–,–
DHQDSDEFCRNTLCAPEVISLINT [FAF2],3.72 ± 0.37,3.67 ± 0.38,–,–
QQACTHTKETEQLRSQLQTLKQQH [CCDC89],4.71 ± 0.17,4.65 ± 0.17,–,–
ARRKLKGAILTTMLATRNFSGGKS [CAMK2A],3.21 ± 0.37,3.34 ± 0.47,–,–
GTPSLLRGKRGGHATNYRIVAPRS [EMID1],4.1 ± 0.12,3.88 ± 0.32,–,–
LINHKKAEDTEKKDEPSKYNQQQA [CEP70],5.4 ± 0.21,5.26 ± 0.38,–,–
YSGPPSPHGTLRVCTISSTGPLQP [PKD2L1],2.65 ± 0.57,2.83 ± 0.3,–,–
CTKTCGVGVRMRDVKCYQGTDIVR [ADAMTSL2],3.27 ± 0.4,2.65 ± 0.33,–,–
VTCKDKKGYTPLHAAASNGQINVV [ANKRD44],3.34 ± 0.12,3.24 ± 0.27,–,–
FSGTDWMLEKMDLKEFDLDALLGI [ATF4],2.33 ± 0.11,2.5 ± 0.49,–,–
SGGVASFICQATGDPRPKIVWNKK [PTPRD],3.46 ± 0.49,3.58 ± 0.11,–,–
EAYLASLRADQEKERKKREERERK [FAF2],5.33 ± 0.35,5.46 ± 0.23,–,–
HGISIPEPEDMETLEEKFSDVHPV [CDKL4],5.29 ± 0.2,4.98 ± 0.28,–,–
AQLYEDFLFPIDISLVKREHDFLD [DLC1],2.52 ± 0.12,2.7 ± 0.28,–,–
KEDIDLIDILWRQDIDLGAGREVF [NFE2L1],2.75 ± 0.57,3.47 ± 0.88,–,–
MELLRTITYQPAASTKMCEQALGK [PLK2],2.46 ± 0.47,3.06 ± 0.43,–,–
MANIHQENEEMEQPMQNGEEDRPL [BEX3],5.46 ± 0.055,5.71 ± 0.087,–,–

Sequence,protein stability index [1],protein stability index [2],"protein stability index (treatment: DMSO, c terminus: native)","protein stability index (treatment: MLN4924 1 uM, 8 h, c terminus: native)"
PSSLMETLEQHLNTLEGKKPGNNE [SNAP91],5.17 ± 0.09,5.05 ± 0.17,–,–
IAWIKDKLLHIYYQNSIDDRLLVE [PDS5B],2.82 ± 0.36,2.43 ± 0.44,–,–
NSLFIDRQKCMAHRTRYPTILQLA [TEKT4],2.23 ± 0.34,2.12 ± 0.23,–,–
SGTPKRYSLELGKAIKQKLWEALC [C22orf31],2.9 ± 0.67,2.9 ± 0.37,–,–
SPGHSSAGQEGEDTLRRRLLAPEA [TOR1AIP2],4.29 ± 0.052,4.51 ± 0.27,–,–
MAEGSAVSDPQHAARLLRALSSFR [GAN],3.16 ± 0.28,3.3 ± 0.24,–,–
METGRWKKINTEGDVPPSMSGSCA [KLHDC2],4.01 ± 0.34,4.21 ± 0.097,–,–
GEYPRWDAWSGSNAYHIERLMSFR [CRYBA1],2.17 ± 0.22,2.41 ± 0.28,–,–
PTQLRALNLTEGFAVLHWKPPQNP [TNXB],2.8 ± 0.66,3.04 ± 0.63,–,–
SCYQVYCGRYINGHMLQHHGNSGH [HDAC6],2.49 ± 0.54,2.21 ± 0.16,–,–
DAVTIPCGHTFCRLCLPALSQMGA [TRIM15],2.47 ± 0.35,2.17 ± 0.27,–,–
KTLAVKNEEIQSFIYSLKQMLLNV [FSD1],2.52 ± 0.37,2.14 ± 0.21,–,–
ETIQGFWLLTKIDHWNNEKERILL [TPRG1],2.59 ± 0.44,2.73 ± 0.59,–,–
MTEMSFLSSEVLVGDLMSPFDQSG [ATF4],3.37 ± 0.1,3.24 ± 0.37,–,–
QGLEQFINKIAGHPLAQNERCLHM [SNX12],2.27 ± 0.13,2.41 ± 0.21,–,–
CAYRTHLVAGIGFYQHLLLYIQSH [SMG5],3.01 ± 0.63,3.34 ± 0.87,–,–
QYYDDEKKTWKILTIMPYNSAHHC [KLHL14],2.56 ± 0.43,2.59 ± 0.42,–,–
NTRFVVDPSIFTAQPNTMLGRMFG [BTBD10],2.51 ± 0.52,2.44 ± 0.16,–,–
QEYEALLNIKVKLEAEIATYRRLL [KRT18],2.89 ± 0.28,2.82 ± 0.42,–,–
AIDQYRVCQEVLERSRDVVDDVSV [RHOBTB2],4.66 ± 0.31,4.78 ± 0.13,–,–
ANYLEKVRQLERENAELESRIQEW [KRT36],4.27 ± 0.3,4.46 ± 0.16,–,–
VLEEQLVKAKEQIENYKKQTRNGL [FUT8],3.77 ± 0.1,3.89 ± 0.35,–,–
NIMMPMGGMMPPGPGIPPLMPGMP [ZNF207],2.87 ± 0.29,2.88 ± 0.13,–,–

Sequence,protein stability index [1],protein stability index [2],"protein stability index (treatment: DMSO, c terminus: native)","protein stability index (treatment: MLN4924 1 uM, 8 h, c terminus: native)"
QALRGLEGYTWRVAQLEDRRSTTD [ZSWIM9],3.91 ± 0.23,3.75 ± 0.52,–,–
YYGFSESAESQGLDGAGLMGFVPH [ADAMTSL2],3 ± 0.41,3 ± 0.47,–,–
EDVEAVQKLQDVLHEALQDYEAGQ [ESRRG],4.92 ± 0.46,4.95 ± 0.51,–,–
AIHQDPPDECGKTEFTRFLCSSPL [ATE1],3.78 ± 0.24,3.82 ± 0.17,–,–
VETLVKKKIPIISNAMLVGDKLKF [ACSBG2],2.27 ± 0.38,2.61 ± 0.27,–,–
MRRGAPQDQELVGPGPPGRGSRGA [MOSPD3],5.31 ± 0.44,5 ± 0.28,–,–
ADNMLEYKSWLKNLAKEQLSRENI [PPEF2],3.61 ± 0.27,3.75 ± 0.38,–,–
FGSLPSPKELSSFSFSMKGHEKTA [DLC1],3.53 ± 0.19,3.74 ± 0.25,–,–
EQHVHNEKSVLKEVSHPFLIRLFW [PRKX],2.25 ± 0.25,2.26 ± 0.081,–,–
QTEETQETALTLACCGGFLEVADF [ANKRD17],3.79 ± 0.28,3.96 ± 0.28,–,–
QKKIGAYDQQIWEKSIEQTQIKGL [PHTF1],3.76 ± 0.12,3.73 ± 0.22,–,–
ESDTDIYETVAAATSESTTVEPGK [DRICH1],5.66 ± 0.14,5.6 ± 0.2,–,–
VAPPAKQAQQKKAPAKKANSTTTA [BRD3],5.11 ± 0.26,5.26 ± 0.13,–,–
PWDKNPEALAKWAEGRTGFPWIDA [CRY1],3.08 ± 0.17,3.04 ± 0.2,–,–
SGKSEISELRRTMQALEIELQSQL [KRT17],3.58 ± 0.35,3.68 ± 0.15,–,–
ACRANVKSGAIMSALSDTEIQREI [PPFIA4],3.41 ± 0.29,3.57 ± 0.47,–,–
DQFTQVFLESQGIELNPPEKMALD [EFHC1],4.662 ± 0.027,4.78 ± 0.24,–,–
GGFAKCYEMTDLTNNKVYAAKIIP [PLK2],2.52 ± 0.38,2.81 ± 0.29,–,–
PVPATPILQLEECCTHNNSATLSW [TRIM9],3.27 ± 0.16,3.38 ± 0.18,–,–
KALQEENRDLRKASVTIQARAEQE [CCDC6],5.32 ± 0.2,5.32 ± 0.091,–,–

# Source: the supplement of paper PMC10567573
